In doi:10.1101/744821 (bioRxiv, 2019) one finds EC50 and IC50 data, which are given here for 2 molecules.

To fix the notation:
T1: biotinylated HEG1 cytoplasmic tail (a.a. 1274-1381) (UniProt Q9ULI3 1274-1381, biotin on the in vivo biotinylation peptide tag)
T1 sequence (looked up): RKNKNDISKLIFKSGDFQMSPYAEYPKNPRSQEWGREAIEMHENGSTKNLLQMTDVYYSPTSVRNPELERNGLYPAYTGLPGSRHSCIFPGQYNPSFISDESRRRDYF

B1: His6-EGFP-KRIT1(WT) FERM domain (417-736) (domain or fragment, human, UniProt O00522 417-736, looked up)
chain: KPYEKVRIYRMDGSYRSVELKHGNNTTVQQIMEGMRLSQETQQYFTIWICSENLSLQLKPYHKPLQHVRDWPEILAELTNLDPQRETPQLFLRRDVRLPLEVEKQIEDPLAILILFDEARYNLLKGFYTAPDAKLITLASLLLQIVYGNYESKKHKQGFLNEENLKSIVPVTKLKSKAPHWTNRILHEYKNLSTSEGVSKEMHHLQRMFLQNCWEIPTYGAAFFTGQIFTKASPSNHKVIPVYVGVNIKGLHLLNMETKALLISLKYGCFMWQLGDTDTCFQIHSMENKMSFIVHTKQAGLVVKLLMKLNGQLMPTERNS
B2: non-biotinylated HEG1 7-mer peptide (residues 1375-1381) (peptide, UniProt Q9ULI3 1375-1381, looked up)
peptide: SRRRDYF

Assay [1] addresses T1, biotinylated HEG1 cytoplasmic tail …. The assay can be described thus: flow cytometry on beads. A general note: Flow cytometry measures light scatter and fluorescence of single cells or particles in a stream.
Assay [2] addresses B1. The assay can be described thus: flow cytometry on beads.

Consider B1, for which, in assay [1], the EC50 (as a rule, the concentration giving half of the maximal effect) came to 32.4 nM.

Take B2: half-maximal inhibition in assay [2] (IC50) was put at 410 nM.
